Experimental findings from paper PMC3725419, “Structural insights into the activation of MST3 by MO25” (Biochemical and Biophysical Research Communications, 2013) are described below.

This experiment concerns the target T1, full length MO25β (human, UniProt Q9H9S4 1-337).
T1 construct: MO25β (mouse protein-25 beta), full length; plasmids are in the supplementary section; also called mouse protein-25 beta; source: E. coli BL21 (DE3) with pRARE2, purified (Glutathione-Sepharose, eluted with Prescission protease)
T1 sequence (looked up): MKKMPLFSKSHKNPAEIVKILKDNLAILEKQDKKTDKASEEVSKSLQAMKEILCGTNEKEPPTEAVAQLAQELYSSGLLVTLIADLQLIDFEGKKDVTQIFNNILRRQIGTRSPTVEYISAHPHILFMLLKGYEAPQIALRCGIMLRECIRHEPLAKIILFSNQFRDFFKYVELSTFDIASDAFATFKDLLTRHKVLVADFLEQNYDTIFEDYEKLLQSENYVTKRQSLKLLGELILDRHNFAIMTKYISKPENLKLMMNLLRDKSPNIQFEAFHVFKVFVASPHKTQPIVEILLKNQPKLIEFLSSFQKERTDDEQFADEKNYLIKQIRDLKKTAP
The experiment in a line: crystal structure; MST3 (19-289) and MO25β mixed in an equimolar ratio, complex isolated on an S200 gel filtration column (20 mM Tris pH 7.5, 200 mM NaCl, 0.5 mM TCEP); sitting drop at 4 °C; two MST3:MO25β complexes in the asymmetric unit; no ATP or inhibitor. Conditions: both partners purified. (In general: Size exclusion chromatography separates by hydrodynamic size, large species first.)

B1: MST3 catalytic fragment (residues 19–289) (domain or fragment)
chain: not shown
notes: numbers count on: isoform b (NCBI NP_001027467.2); plasmids are described in the supplementary section; also called MST3 catalytic domain; source: E. coli BL21 (DE3) with pRARE2, purified (Ni-Sepharose, S200 gel filtration)
With B1, the binding result is “binds”.
